Assay [1] has as its target T1, human Y2 receptor (Homo sapiens, UniProt P49146).
T1 construct: expressed in transfected cells; membrane fraction
T1 sequence (P49146 1-381): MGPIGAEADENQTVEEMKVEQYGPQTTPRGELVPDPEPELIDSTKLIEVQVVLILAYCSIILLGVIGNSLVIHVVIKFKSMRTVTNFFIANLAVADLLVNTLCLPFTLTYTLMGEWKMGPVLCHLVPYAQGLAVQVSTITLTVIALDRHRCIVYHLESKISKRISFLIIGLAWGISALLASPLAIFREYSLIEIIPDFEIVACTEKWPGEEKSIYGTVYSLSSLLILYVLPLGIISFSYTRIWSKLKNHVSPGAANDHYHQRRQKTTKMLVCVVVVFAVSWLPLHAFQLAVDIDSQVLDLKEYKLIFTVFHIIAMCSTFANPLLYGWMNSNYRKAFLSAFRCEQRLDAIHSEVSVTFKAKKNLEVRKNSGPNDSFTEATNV
The experiment in a line: Human Y2 Receptor G Protein Binding Assay (GBA), [35S]GTPγS. Type of assay: biochemical. The settings on record: EC50 of test compound/EC50 of PYY(3-36) (PYY3-36 taken as 1), hY2R/CHO membrane fraction. The method, then:
(3) Test Method: Human Y2 Receptor G Protein Binding Assay (GBA)
The agonist activity of the compound of the present invention against the human Y2 receptor was measured by the method described below.
2 μL of the test compound, serially diluted with DMSO from 100 μM to 1 nM, was dispensed to a 96-well plate, and 100 μL of the membrane fraction, previously diluted with an assay buffer (50 mM Tris, 5 mM MgCl2, 150 mM NaCl, […], 0.03% NaN3, 0.1% BSA, pH 7.4) to 1 μg protein/mL, was dispensed thereto, subsequently, 100 μL of a [^35S]GTPγS (NEG030H, PerkinElmer, previously diluted with the assay buffer to 1 nM) was added, and they were mixed by pipetting. After incubation at room temperature for 120 minutes, the mixture was filtered through the cell harvester FilterMate (PerkinElmer) using the UniFilter-96 GF/C (PerkinElmer), and the filter was washed 3 times with a filtering buffer (50 mM Tris, 5 mM MgCl2, 150 mM NaCl, 0.03% NaN3, 0.05% CHAPS, pH 7.4). Thereafter, UniFilter-96 GF/C was dried in a mechanical drier for 1 hour, 15 μl of the liquid scintillator MicroScint O (PerkinElmer) was added to each well, and a measurement was taken using TopCount (PerkinElmer). The data obtained were analyzed using Prism to calculate the EC50 value. The agonist activity of the test compound was expressed as a ratio to the EC50 value of PYY3-36 taken as 1 (EC50 Ratio: EC50 of test compound/EC50 of PYY(3-36)). The results are shown in the GBA column in Table 5 (Table 5-1-Table 5-10).
(In general: GTPγS resists hydrolysis and so accumulates on activated G proteins.)

For assay [2], the target named is T1, human Y2 receptor. The experiment in a line: Receptor Binding Assay (RBA) for Human Y2, [125I]-PYY displacement on hY2R/CHO membrane fraction. The settings on record: IC50 of test compound/IC50 of PYY(3-36) (PYY(3-36) taken as 1). As to the method:
(1) Construction of Expression Plasmid for the Human Y2 Receptor (Y2R) Gene
PCR was performed by a reaction using Pfu DNA polymerase ([…]), with a human brain cDNA (PT3158-1, Clontech) as the template, wherein synthetic DNAs with the following sequences were used as a combination of 5′ and 3′ primers, whereby the human Y2R gene was cloned. Primer 1 was prepared on the basis of base sequence information on the human Y2R gene (Refseq ID No. NM_000910) with the addition of Kozak's consensus sequence. Primer 2 was prepared on the basis of base sequence information on the human Y2R gene.
The PCR product obtained was cloned into pCR4-Blunt-TOPO (Invitrogen), and the plasmid was extracted according to a conventional method (QIAwell 8 Plus, QIAGEN). After confirming the base sequence, the human Y2R gene was re-cloned by a PCR reaction with the plasmid DNA as the template, using Primer 1 as the 5′ primer and Primer 2 as the 3′ primer. The PCR was performed using the Pyrobest DNA polymerase (TaKaRa). The PCR product obtained was re-cloned into pCR-Blunt II-TOPO (Invitrogen), and the plasmid was extracted according to a conventional method (QIAGEN). An Xho I restriction enzyme digestion site and an Spe I restriction enzyme digestion site are present in the cloning site of the pCR-Blunt II-TOPO; a plasmid clone was selected wherein the human Y2R gene was inserted in the orientation such that the Xho I restriction enzyme digestion site was positioned upstream of Primer 1, and the Spe I restriction enzyme digestion site was positioned downstream of Primer 2. After confirming the base sequence, the plasmid clone was digested with the restriction enzymes Xho I and Spe I to yield a DNA fragment. The DNA fragment was inserted into the animal cell expression vector pAKKO-111H (the same plasmid as pAKKO-1.111H described in Biochem. Biophys. Acta, Hinuma, S. et al., 1219, 251-259 (1994)), which was enzymatically digested with Sal I and Spe I, to yield the expression plasmid pAK-hY2R (pAKKO-111H/Y2R).
(2) Test Method: Receptor Binding Assay (RBA) for Human Y2
A human NPY2R (hY2R) stable expression cell line was acquired by transducing the animal cell expression plasmid pAK-hY2R into CHO/dhfr-cells using the CellPhect Transfection kit (Amersham Pharmacia Biotech Co.). First, 240 μl of Buffer A (attached to the CellPhect Transfection kit) was added to 9.6 μg of the plasmid DNA dissolved in 240 μl of distilled water; this mixture was stirred and allowed to stand for 10 minutes, after which 480 μL of Buffer B (attached to the CellPhect Transfection kit) was added, and the mixture was vigorously stirred to form a liposome containing the DNA. 2.5×10^5 or 4×10^5 CHO/dhfr− cells (obtained from ATCC) were seeded to 60 mm petri dishes, and cultured in Ham's F-12 medium (Sigma Co.) containing 10% fetal bovine serum (BioWest Co.) at 37° C. in 5% gaseous carbon dioxide for 1 day, after which 480 μL of the liposome was added drop by drop on to the cells in each petri dish. This was cultured at 37° C. in 5% gaseous carbon dioxide for 6 hours, after which the cells were twice washed with serum-free Ham's F-12 medium; 3 mL of 15% glycerol was added onto the cells in the petri dish and treated for 2 minutes. This was again washed 3 times with serum-free Ham's F-12 medium, after which the cells were cultured in Ham's F-12 medium containing 10% fetal bovine serum at 37° C. in 5% gaseous carbon dioxide. The cells were dispersed by trypsinization and recovered from the petri dishes, and seeded to a 6-well plate at 2.5×10^4 or 4×10^4 cells per well; cultivation was begun in Dulbecco's modified Eagle medium <DMEM> medium (Sigma Co.) containing dialyzed 10% fetal bovine serum (Invitrogen Co.) at 37° C. in 5% gaseous carbon dioxide. Since plasmid-introduced transformant CHO cells grow in the medium, whereas cells without plasmid introduction die gradually, about 20 colonies of transformed CHO cell that had grown 9-13 days after the start of the cultivation were isolated. […]

Non-standard residues stand in square brackets, D forms with d. Primed or numbered codes have the meaning given here. No end group written: not given here. *: point of attachment. 4‑Guanidinomethylbenzoyl = N=C(N)NCc1ccc(C(=O)*)cc1; Cyclohexanecarbonyl = O=C(C1CCCCC1)*; Arg(Me) = CNC(=N)NCCC[C@H](N)C(=O)O; Cha = N[C@@H](CC1CCCCC1)C(=O)O; Gly(N-CH2CH2OH) = O=C(O)CNCCO; Isobutyryl = CC(C)C(=O)*; Nle = CCCC[C@H](N)C(=O)O; PEG2′ = not defined here; dNMeA = CN[C@H](C)C(=O)O; Abu = CC[C@H](N)C(=O)O; Aib = CC(C)(N)C(=O)O

Consider “Cyclohexanecarbonyl-[Nle26, Cha27,28,36, Aib31]-PYY(25-36) (Cyclohexanecarbonyl-R[Nle][Cha][Cha]NL[Aib]TRQR[Cha]-NH2; SMILES CCCC[C@H](NC(=O)[C@H](CCCNC(=N)N)NC(=O)C1CCCCC1)C(=O)N[C@@H](CC1CCCCC1)C(=O)N[C@@H](CC1CCCCC1)C(=O)N[C@@H](CC(N)=O)C(=O)N[C@@H](CC(C)C)C(=O)NC(C)(C)C(=O)N[C@H](C(=O)N[C@@H](CCCNC(=N)N)C(=O)N[C@@H](CCC(N)=O)C(=O)N[C@@H](CCCNC(=N)N)C(=O)N[C@@H](CC1CCCCC1)C(N)=O)[C@@H](C)O) [compound No. 77]”, for which the “GBA EC50 Ratio” value in assay [1] was determined as 33. Besides, the “RBA IC50 Ratio” value in assay [2] amounted to 50.
As for “Ac-[D-Pro24, Pya(4)26, Cha27,36, Aib28,31, Lys(Ac)30]-PYY(23-36) [compound No. 278]”, the “GBA EC50 Ratio” value in assay [1] turned out to be 1.1. The “RBA IC50 Ratio” value in assay [2] was 0.97.
On the same counts, the results for “Ac-[D-Pro24, Aib26,28,31, Cha27,36, Lys30]-PYY(23-36) (Ac-S[dP]R[Aib][Cha][Aib]NK[Aib]TRQR[Cha]-NH2; SMILES CC(=O)N[C@@H](CO)C(=O)N1CCC[C@@H]1C(=O)N[C@@H](CCCNC(=N)N)C(=O)NC(C)(C)C(=O)N[C@@H](CC1CCCCC1)C(=O)NC(C)(C)C(=O)N[C@@H](CC(N)=O)C(=O)N[C@@H](CCCCN)C(=O)NC(C)(C)C(=O)N[C@H](C(=O)N[C@@H](CCCNC(=N)N)C(=O)N[C@@H](CCC(N)=O)C(=O)N[C@@H](CCCNC(=N)N)C(=O)N[C@@H](CC1CCCCC1)C(N)=O)[C@@H](C)O) [compound No. 235]” are 2.7 and 2.1.
For “Ac-[D-Pro24, Arg(Me)25, Cha27,36, Aib28,31, Lys30]-PYY(23-36) (Ac-S[dP][Arg(Me)]H[Cha][Aib]NK[Aib]TRQR[Cha]-NH2; SMILES CNC(=N)NCCC[C@H](NC(=O)[C@H]1CCCN1C(=O)[C@H](CO)NC(C)=O)C(=O)N[C@@H](Cc1c[nH]cn1)C(=O)N[C@@H](CC1CCCCC1)C(=O)NC(C)(C)C(=O)N[C@@H](CC(N)=O)C(=O)N[C@@H](CCCCN)C(=O)NC(C)(C)C(=O)N[C@H](C(=O)N[C@@H](CCCNC(=N)N)C(=O)N[C@@H](CCC(N)=O)C(=O)N[C@@H](CCCNC(=N)N)C(=O)N[C@@H](CC1CCCCC1)C(N)=O)[C@@H](C)O) [compound No. 281]”, the “GBA EC50 Ratio” value in assay [1] was 1.8. In assay [2], the “RBA IC50 Ratio” value stood at 1.8.
On to “[N(2-hydroxyethyl)Gly23, D-Pro24, Cha27,28,36, Aib31]-PYY(23-36) ([Gly(N-CH2CH2OH)][dP]RH[Cha][Cha]NL[Aib]TRQR[Cha]-NH2; N-terminus assumed; SMILES CC(C)C[C@H](NC(=O)[C@H](CC(N)=O)NC(=O)[C@H](CC1CCCCC1)NC(=O)[C@H](CC1CCCCC1)NC(=O)[C@H](Cc1c[nH]cn1)NC(=O)[C@H](CCCNC(=N)N)NC(=O)[C@H]1CCCN1C(=O)CNCCO)C(=O)NC(C)(C)C(=O)N[C@H](C(=O)N[C@@H](CCCNC(=N)N)C(=O)N[C@@H](CCC(N)=O)C(=O)N[C@@H](CCCNC(=N)N)C(=O)N[C@@H](CC1CCCCC1)C(N)=O)[C@@H](C)O) [compound No. 134]”, for which the “GBA EC50 Ratio” value in assay [1] turned out to be 1.2. Moreover, the “RBA IC50 Ratio” value in assay [2] is listed as 2.0.
As for “Ac-[D-MeAla22, D-Pro24, Cha27,28,36, Aib31]-PYY(22-36) (Ac-[dNMeA]S[dP]RH[Cha][Cha]NL[Aib]TRQR[Cha]-NH2; SMILES CC(=O)N(C)[C@H](C)C(=O)N[C@@H](CO)C(=O)N1CCC[C@@H]1C(=O)N[C@@H](CCCNC(=N)N)C(=O)N[C@@H](Cc1c[nH]cn1)C(=O)N[C@@H](CC1CCCCC1)C(=O)N[C@@H](CC1CCCCC1)C(=O)N[C@@H](CC(N)=O)C(=O)N[C@@H](CC(C)C)C(=O)NC(C)(C)C(=O)N[C@H](C(=O)N[C@@H](CCCNC(=N)N)C(=O)N[C@@H](CCC(N)=O)C(=O)N[C@@H](CCCNC(=N)N)C(=O)N[C@@H](CC1CCCCC1)C(N)=O)[C@@H](C)O) [compound No. 124]”, the “GBA EC50 Ratio” value in assay [1] is 6.1. Also, the “RBA IC50 Ratio” value in assay [2] came to 3.5.
In the same order, the values of “Isobutanoyl-[Abu26, Gly27, Cha28,36, Aib31]-PYY(25-36) (Isobutyryl-R[Abu]G[Cha]NL[Aib]TRQR[Cha]-NH2; SMILES CC[C@H](NC(=O)[C@H](CCCNC(=N)N)NC(=O)C(C)C)C(=O)NCC(=O)N[C@@H](CC1CCCCC1)C(=O)N[C@@H](CC(N)=O)C(=O)N[C@@H](CC(C)C)C(=O)NC(C)(C)C(=O)N[C@H](C(=O)N[C@@H](CCCNC(=N)N)C(=O)N[C@@H](CCC(N)=O)C(=O)N[C@@H](CCCNC(=N)N)C(=O)N[C@@H](CC1CCCCC1)C(N)=O)[C@@H](C)O) [compound No. 95]” are 49 and 70.
In the case of “[(PEG2)23, D-Pro24, Cha27,28,36, Aib31]-PYY(23-36) ([PEG2′][dP]RH[Cha][Cha]NL[Aib]TRQR[Cha]-NH2) [compound No. 118]”, in assay [1], the “GBA EC50 Ratio” value turned out to be 0.9. Further, in assay [2], the “RBA IC50 Ratio” value came out at 0.9.
“4-Guanidinomethylbenzoyl-[Nle25, Cha27,28,31,36, Arg30]-PYY(25-36) ({4‑Guanidinomethylbenzoyl}-[Nle]H[Cha][Cha]NR[Cha]TRQR[Cha]-NH2; SMILES CCCC[C@H](NC(=O)c1ccc(CNC(=N)N)cc1)C(=O)N[C@@H](Cc1c[nH]cn1)C(=O)N[C@@H](CC1CCCCC1)C(=O)N[C@@H](CC1CCCCC1)C(=O)N[C@@H](CC(N)=O)C(=O)N[C@@H](CCCNC(=N)N)C(=O)N[C@@H](CC1CCCCC1)C(=O)N[C@H](C(=O)N[C@@H](CCCNC(=N)N)C(=O)N[C@@H](CCC(N)=O)C(=O)N[C@@H](CCCNC(=N)N)C(=O)N[C@@H](CC1CCCCC1)C(N)=O)[C@@H](C)O) [compound No. 76]”: the “GBA EC50 Ratio” value in assay [1] turned out to be 4.5. For the same substance, the “RBA IC50 Ratio” value in assay [2] was found to be 7.2.

The values are drawn from US9260500B2, “Peptide and use thereof” (Takeda Pharmaceutical Company Limited, priority 2009, dated 2016).
